Source: patent US20120164688A1
Blank lines part the entries; values can stand above or below the substance they belong to.

Columns and labels:
[1] = target: human nerve growth factor (NGF) (human) (UniProt P01138); test: BIACORE blocking; negative control, % free NGF bound to p75-hFc chip
[2] = target: human nerve growth factor (NGF) (human) (UniProt P01138); test: BIACORE blocking; negative control, % free NGF bound to TrkA-hFc chip
[3] = target: human neurotrophin-3 (NT-3) (human) (UniProt P20783); test: BIACORE; 20 nM NT-3 + 500 nM agent, % NT-3 bound to p75-hFc chip (reference)
[4] = target: human neurotrophin-3 (NT-3) (human) (UniProt P20783); test: BIACORE; 20 nM NT-3 + 500 nM agent, % NT-3 bound to TrkA-hFc chip (reference)
[5] = target: human neurotrophin-3 (NT-3) (human) (UniProt P20783); test: BIACORE; 20 nM NT-3 + 500 nM agent, % NT-3 bound to TrkB-hFc chip (reference)
[6] = target: human neurotrophin-3 (NT-3) (human) (UniProt P20783); test: BIACORE; 20 nM NT-3 + 500 nM agent, % NT-3 bound to TrkC-hFc chip (reference)
[7] = target: human nerve growth factor (NGF) (human) (UniProt P01138); test: BIACORE SPR
mouse NGF (mNGF) (mouse) [8] = target: mouse NGF (mNGF) (mouse) (UniProt P01139); test: BIACORE SPR
rat NGF (rNGF) (rat) [9] = target: rat NGF (rNGF) (rat) (UniProt P25427); test: BIACORE SPR
[10] = target: human nerve growth factor (NGF) (human) (UniProt P01138); test: cell-based or functional assay
[11] = target: human neurotrophin-3 (NT-3) (human) (UniProt P20783); test: cell-based or functional assay
[12] = target: human nerve growth factor (NGF) (human) (UniProt P01138); test: BIACORE SPR; purified mAb
mouse NGF (mNGF) (mouse) [13] = target: mouse NGF (mNGF) (mouse) (UniProt P01139); test: BIACORE SPR; purified mAb
rat NGF (rNGF) (rat) [14] = target: rat NGF (rNGF) (rat) (UniProt P25427); test: BIACORE SPR; purified mAb
[15] = target: human neurotrophin-3 (NT-3) (human) (UniProt P20783); test: BIACORE SPR; NT-3 1.25 nM to 40 nM
[16] = target: human nerve growth factor (NGF) (human) (UniProt P01138); test: BIACORE SPR; mAb captured, 20 nM NGF
[17] = target: human neurotrophin-3 (NT-3) (human) (UniProt P20783); test: BIACORE SPR; mAb captured, 20 nM NT-3
[18] = target: human nerve growth factor (NGF) (human) (UniProt P01138); test: BIACORE SPR; complex dissociation half-life
[19] = target: human nerve growth factor (NGF) (human) (UniProt P01138); test: BIACORE SPR; mAb captured, human NGF injected
[20] = target: human nerve growth factor (NGF) (human) (UniProt P01138); test: BIACORE blocking; % free NGF bound to p75-hFc chip
[21] = target: human nerve growth factor (NGF) (human) (UniProt P01138); test: BIACORE blocking; % free NGF bound to TrkA-hFc chip
[22] = target: human neurotrophin-3 (NT-3) (human) (UniProt P20783); test: BIACORE; 20 nM NT-3 + 500 nM agent, % NT-3 bound to p75-hFc chip
[23] = target: human neurotrophin-3 (NT-3) (human) (UniProt P20783); test: BIACORE; 20 nM NT-3 + 500 nM agent, % NT-3 bound to TrkA-hFc chip
[24] = target: human neurotrophin-3 (NT-3) (human) (UniProt P20783); test: BIACORE; 20 nM NT-3 + 500 nM agent, % NT-3 bound to TrkB-hFc chip
[25] = target: human neurotrophin-3 (NT-3) (human) (UniProt P20783); test: BIACORE; 20 nM NT-3 + 500 nM agent, % NT-3 bound to TrkC-hFc chip

human neurotrophin-3 (NT-3) (human), sequence (P20783 139-257 limits assumed): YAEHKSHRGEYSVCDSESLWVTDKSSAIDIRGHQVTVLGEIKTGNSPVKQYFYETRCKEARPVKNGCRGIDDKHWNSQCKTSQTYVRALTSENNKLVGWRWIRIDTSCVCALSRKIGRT
human nerve growth factor (NGF) (human), sequence (P01138 122-241 limits assumed): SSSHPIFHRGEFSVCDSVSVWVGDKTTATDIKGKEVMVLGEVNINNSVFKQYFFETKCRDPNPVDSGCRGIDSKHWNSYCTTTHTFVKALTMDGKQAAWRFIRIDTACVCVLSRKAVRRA
rat NGF (rNGF) (rat), sequence (P25427 122-241 limits assumed): as the sequence (P01138 122-241 limits assumed) above, with S3T, I6V, R9M, M37T, D60A, D65E, M92T, G94D, V117A, A120G counted along it
mouse NGF (mNGF) (mouse), sequence (P01139 122-241 limits assumed): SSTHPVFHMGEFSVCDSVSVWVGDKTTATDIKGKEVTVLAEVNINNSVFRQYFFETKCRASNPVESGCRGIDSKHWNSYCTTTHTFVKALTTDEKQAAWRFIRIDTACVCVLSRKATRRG

% Binding p75-hFc [1]: 116% | % Binding TrkA-hFc [2]: 116% | % binding [3]: 100% | % binding [4]: 100% | % binding [5]: 100% | % binding [6]: 100%
Substance: IgG1 control (AVASTIN®; Genentech, CA) (antibody)

Kd [7]: 1.25 pM | Kd (mouse NGF (mNGF) (mouse) [8]): 1.4 pM | Kd (rat NGF (rNGF) (rat) [9]): 1.5 pM | IC50 (pM), PC12 SRE-luciferase [10]: 4.9 pM | MG87 IC50 [10]: < 186 pM | PC12 IC50 [10]: 21 pM | IC50, HEK293-TrkC SRE-luciferase [11]: 150000 to 200000 pM | IC50, PC12 SRE-luciferase with 75 nM NT-3 [11]: 105000 pM | Kd [12]: 1.25 pM | t1/2 [12]: 35 h | Kd (mouse NGF (mNGF) (mouse) [13]): 1.4 pM | Kd (rat NGF (rNGF) (rat) [14]): 1.51 pM | Kd [15]: 1100 pM | Kd [16]: 1.3 pM | Kd [17]: 1100 pM | t1/2 [18]: 35 h | Kd [19]: 1.3 pM | % Binding p75-hFc [20]: 16% | % Binding TrkA-hFc [21]: 10% | % binding [22]: 19% | % binding [23]: 7% | % binding [24]: 8% | % binding [25]: 8%
Substance: humanized anti-human NGF monoclonal antibody E3 ("RN624") (tanezumab; CAS Registry No. 880266-57-9)
